Source: patent US20230109780A1 (XIYUAN ANJIAN MEDICINE SHANGHAI, published 2023)

Experiments:
human NT-4 = biological target: T1, human NT-4 (human, UniProt P34130 81-210); assay: ELISA, plate coated with human NT-4 (50 ng per well), OD450
T1 construct: Bought protein; also called Neurotrophic factor-4
T1 sequence (looked up): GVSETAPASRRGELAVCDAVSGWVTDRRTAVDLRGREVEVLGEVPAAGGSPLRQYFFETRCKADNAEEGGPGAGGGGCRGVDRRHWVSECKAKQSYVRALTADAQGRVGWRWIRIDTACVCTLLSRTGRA

human BDNF = biological target: T2, human BDNF (human, UniProt P23560 129-247); assay: ELISA, plate coated with human BDNF (50 ng per well), OD450
T2 construct: Bought protein; also called Brain-Derived Neurotrophic Factor
T2 sequence (looked up): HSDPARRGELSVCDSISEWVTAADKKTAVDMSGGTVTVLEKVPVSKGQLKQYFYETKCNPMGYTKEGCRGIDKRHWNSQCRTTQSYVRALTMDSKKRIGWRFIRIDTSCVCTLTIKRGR

human NT-3 = biological target: T3, human NT-3 (human, UniProt P20783 139-257); assay: ELISA, plate coated with human NT-3 (50 ng per well), OD450
T3 construct: Bought protein; also called Neurotrophic factor-3
T3 sequence (looked up): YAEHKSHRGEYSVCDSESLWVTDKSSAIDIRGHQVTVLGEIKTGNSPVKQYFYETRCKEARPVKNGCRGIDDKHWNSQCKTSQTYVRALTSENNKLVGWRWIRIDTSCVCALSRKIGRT
Procedure: Each well of a 96-well microtiter plate was coated with 50 ng of human NGF (Beijing Yiqiao Shenzhou Technology Co., Ltd., 11050-HNAC), human BDNF (Beijing Yiqiao Shenzhou Technology Co., Ltd., 50240-MNAS), human NT-3 (Beijing Yiqiao Shenzhou Technology Co., Ltd., 10286-HNAE), or human NT-4 (Alomone, N-270). The bindings of the murine anti-NGF antibodies to human NGF and three homo-family proteins were detected according to the method described in Example 2.
The binding of the humanized anti-NGF antibody to human NGF and to three homo-family proteins was detected according to the ELISA method described in Example 6A.

[1] = biological target: T4, recombinant human NGF protein (human, UniProt P01138 122-241); assay: ELISA, human NGF coated
T4 construct: Bought protein; also called nerve growth factor; biotin-labeled human NGF
T4 sequence (P01138 122-241 limits assumed): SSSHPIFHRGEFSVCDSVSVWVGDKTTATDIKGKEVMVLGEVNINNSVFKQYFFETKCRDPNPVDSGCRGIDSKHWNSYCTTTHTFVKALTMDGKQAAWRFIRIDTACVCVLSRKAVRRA
Procedure: The affinity and specificity of humanized antibody were investigated by using human NGF as an antigen (Beijing Yiqiao Shenzhou Technology Co., Ltd., 11050-HNAC). NGF was diluted with […] coating solution (PBS), and each well of 96-well microtiter plate was coated with 50 ng, after washing and blocking, and then added with serially diluted antibodies, and incubated at room temperature for 1 hour. After washing three times, HRP-conjugated donkey anti-human IgG antibody (Biolegend) was added and reacted at room temperature for 1 hour. After washing three times, tetramethylbenzidine (TMB, Biolegend) was added for color development. 1M HC1 was […] used to terminate the color development, and the absorbance values were read at 450 nm with a microplate reader.

[2] = biological target: T4, recombinant human NGF protein; assay: cell-based or functional assay

Binder | binding result (human NT-4) | binding result (human BDNF) | binding result (human NT-3) | EC50 [1] | IC50, inhibition of NGF-induced proliferation of TF-1 cell [2]
humanized anti-NGF antibody 138E12-02 (antibody, V domains shown, Humanized antibody expressed in CHO cells) VH: QVQLQESGPGLVKPSETLSLTCTVSGFSLTGYGVNWIRQPPGKGLEWLGMIWFDGSTDYNSALKSRLTISKDNSKSQVSLKLSSVTAADTAVYYCAREGYYYGTTYYFDYWGQGTTVTVSS VL: DIQMTQSPSSLSASVGDRVTITCRASQDISNYLNWYQQKPGKAPKLLIYYTSRLHSGVPSRFSGSGSGTDYTLTISSLQPEDFATYFCQQGNTLPRTFGGGTKVEIK | no binding (tested: 66.67 nM) | no binding (tested: 66.67 nM) | no binding (tested: 66.67 nM) | 0.042 nM | 0.064 nM
humanized anti-NGF antibody 138E12-01 (antibody, V domains shown, Humanized antibody expressed in CHO cells) VH: QVQLQESGPGLVKPSETLSLTCTVSGFSLTGYGVNWIRQPPGKGLEWIGMIWFDGSTDYNSALKSRVTISKDNSKSQVSLKLSSVTAADTAVYYCAREGYYYGTTYYFDYWGQGTTVTVSS VL: DIQMTQSPSSLSASVGDRVTITCRASQDISNYLNWYQQKPGKAPKLLIYYTSRLHSGVPSRFSGSGSGTDYTLTISSLQPEDFATYFCQQGNTLPRTFGGGTKVEIK | no binding (tested: 66.67 nM) | no binding (tested: 66.67 nM) | no binding (tested: 66.67 nM) | 0.0403 nM | 0.03 nM
humanized anti-NGF antibody 138E12-09 (antibody, V domains shown) VH: QVQLQESGPGLVKPSETLSLTCTVSGFSLTGYGVNWIRQPPGKGLEWIGMIWFDGSTDYQSALKSRVTISKDNSKSQVSLKLSSVTAADTAVYYCAREGYYYGTTYYFDYWGQGTTVTVSS VL: DIQMTQSPSSLSASVGDRVTITCRASQDISNYLNWYQQKPGKAPKLLIYYTSRLHSGVPSRFSGSGSGTDYTLTISSLQPEDFATYFCQQGNTLPRTFGGGTKVEIK | no binding (tested: 66.67 nM) | no binding (tested: 66.67 nM) | no binding (tested: 66.67 nM) | 0.027 nM | 0.035 nM
humanized anti-NGF antibody 138E12-04 (antibody, V domains shown) VH: QVQLQESGPGLVKPSETLSLTCTVSGFSLTGYGVNWIRQPPGKGLEWLGMIWFDASTDYNSALKSRLTISKDNSKSQVSLKLSSVTAADTAVYYCAREGYYYGTTYYFDYWGQGTTVTVSS VL: DIQMTQSPSSLSASVGDRVTITCRASQDISNYLNWYQQKPGKAPKLLIYYTSRLHSGVPSRFSGSGSGTDYTLTISSLQPEDFATYFCQQGNTLPRTFGGGTKVEIK | no binding (tested: 66.67 nM) | no binding (tested: 66.67 nM) | no binding (tested: 66.67 nM) | 0.057 nM | 0.112 nM
humanized anti-NGF antibody 138E12-08 (antibody, V domains shown) VH: QVQLQESGPGLVKPSETLSLTCTVSGFSLTGYGVNWIRQPPGKGLEWIGMIWFEGSTDYNSALKSRVTISKDNSKSQVSLKLSSVTAADTAVYYCAREGYYYGTTYYFDYWGQGTTVTVSS VL: DIQMTQSPSSLSASVGDRVTITCRASQDISNYLNWYQQKPGKAPKLLIYYTSRLHSGVPSRFSGSGSGTDYTLTISSLQPEDFATYFCQQGNTLPRTFGGGTKVEIK | no binding (tested: 66.67 nM) | no binding (tested: 66.67 nM) | no binding (tested: 66.67 nM) | 0.0253 nM | 0.067 nM
humanized anti-NGF antibody 138E12-05 (antibody, V domains shown) VH: QVQLQESGPGLVKPSETLSLTCTVSGFSLTGYGVNWIRQPPGKGLEWLGMIWFDGSTDYQSALKSRLTISKDNSKSQVSLKLSSVTAADTAVYYCAREGYYYGTTYYFDYWGQGTTVTVSS VL: DIQMTQSPSSLSASVGDRVTITCRASQDISNYLNWYQQKPGKAPKLLIYYTSRLHSGVPSRFSGSGSGTDYTLTISSLQPEDFATYFCQQGNTLPRTFGGGTKVEIK | no binding (tested: 66.67 nM) | no binding (tested: 66.67 nM) | no binding (tested: 66.67 nM) | 0.0634 nM | 0.136 nM
humanized anti-NGF antibody 138E12-10 (antibody, V domains shown) VH: QVQLQESGPGLVKPSETLSLTCTVSGFSLTGYGVNWIRQPPGKGLEWIGMIWFEGSTDYQSALKSRVTISKDNSKSQVSLKLSSVTAADTAVYYCAREGYYYGTTYYFDYWGQGTTVTVSS VL: DIQMTQSPSSLSASVGDRVTITCRASQDISNYLNWYQQKPGKAPKLLIYYTSRLHSGVPSRFSGSGSGTDYTLTISSLQPEDFATYFCQQGNTLPRTFGGGTKVEIK | no binding (tested: 66.67 nM) | no binding (tested: 66.67 nM) | no binding (tested: 66.67 nM) | 0.0184 nM | 0.031 nM
humanized anti-NGF antibody 138E12-11 (antibody, V domains shown) VH: QVQLQESGPGLVKPSETLSLTCTVSGFSLTGYGVNWIRQPPGKGLEWLGMIWFEGSTDYQSALKSRLTISKDNSKSQVSLKLSSVTAADTAVYYCAREGYYYGTTYYFDYWGQGTTVTVSS VL: DIQMTQSPSSLSASVGDRVTITCRASQDISNYLNWYQQKPGKAPKLLIYYTSRLHSGVPSRFSGSGSGTDYTLTISSLQPEDFATYFCQQGNTLPRTFGGGTKVEIK | no binding (tested: 66.67 nM) | no binding (tested: 66.67 nM) | no binding (tested: 66.67 nM) | 0.0324 nM | 0.062 nM
humanized anti-NGF antibody 138E12-03 (antibody, V domains shown) VH: QVQLQESGPGLVKPSETLSLTCTVSGFSLTGYGVNWIRQPPGKGLEWLGMIWFEGSTDYNSALKSRLTISKDNSKSQVSLKLSSVTAADTAVYYCAREGYYYGTTYYFDYWGQGTTVTVSS VL: DIQMTQSPSSLSASVGDRVTITCRASQDISNYLNWYQQKPGKAPKLLIYYTSRLHSGVPSRFSGSGSGTDYTLTISSLQPEDFATYFCQQGNTLPRTFGGGTKVEIK | no binding (tested: 66.67 nM) | no binding (tested: 66.67 nM) | no binding (tested: 66.67 nM) | 0.0392 nM | 0.13 nM
humanized anti-NGF antibody 138E12-07 (antibody, V domains shown) VH: QVQLQESGPGLVKPSETLSLTCTVSGFSLTGYGVNWIRQPPGKGLEWIGMIWFEGSTDYQSALKSRVTISVDTSKNQFSLKLSSVTAADTAVYYCAREGYYYGTTYYFDYWGQGTTVTVSS VL: DIQMTQSPSSLSASVGDRVTITCRASQDISNYLNWYQQKPGKAPKLLIYYTSRLHSGVPSRFSGSGSGTDYTLTISSLQPEDFATYFCQQGNTLPRTFGGGTKVEIK | no binding (tested: 66.67 nM) | no binding (tested: 66.67 nM) | no binding (tested: 66.67 nM) | 0.034 nM | 0.214 nM
humanized anti-NGF antibody 138E12-06 (antibody, V domains shown) VH: QVQLQESGPGLVKPSETLSLTCTVSGFSLTGYGVNWIRQPPGKGLEWLGMIWFDGSTDYNTALKSRLTISKDNSKSQVSLKLSSVTAADTAVYYCAREGYYYGTTYYFDYWGQGTTVTVSS VL: DIQMTQSPSSLSASVGDRVTITCRASQDISNYLNWYQQKPGKAPKLLIYYTSRLHSGVPSRFSGSGSGTDYTLTISSLQPEDFATYFCQQGNTLPRTFGGGTKVEIK | no binding (tested: 66.67 nM) | no binding (tested: 66.67 nM) | no binding (tested: 66.67 nM) | 0.05 nM | 0.125 nM
